Experimental data taken from US6559124B1, “Use of prosaposin and peptides obtained therefrom for treatment of neural degeneration” (Myelos Corporation, priority 1993, dated 2003).
Several values for one entry are separate records, joined by “and”; a condition that tells them apart may be missing. Equal values may be shown once. Where no end group is shown, it is not given here.

Key:
[1] = system: NS20Y neuroblastoma cells; assay: Neurite outgrowth of NS20Y neuroblastoma cells; assay type: cell-based; settings: for % Neurites after 24 hours: peptide added at 5 μg/ml, None = 18%
Procedure: NS20Y neuroblastoma cells were grown in Dulbecco's Modified Eagle Medium (DMEM) containing 10% fetal calf serum (FCS) and 1 mM sodium pyruvate. Cells were removed with trypsin and plated in 30 mm petri dishes onto glass coverslips. After 20-24 hours the medium was replaced with DMEM containing 0.5% fetal calf serum plus effector proteins. Cells were cultured for another 24 hours, washed with phosphate buffered saline (PBS) and fixed with Bouin's solution (saturated aqueous picric acid/formalin/acetic acid 15:5:1) for 30 minutes. Fixative was removed with PBS and neurite outgrowth was scored under a phase contrast microscope. […] At least 200 cells were scored in different portions of each dish to determine the percentage of neurite bearing cells and assays were performed in duplicate.

[2] = parameters: species or system rats; settings: rat, in vivo
Procedure: An 18-mer peptide consisting of amino acids 12-29 of saposin C with a tyrosine substituted for valine at position 12 was chemically synthesized on an Applied Biosystems Model 430 peptide synthesizer. The peptide was then radioiodinated by the lactoperoxidase method and 20×10^6 cpm were injected into the auricles of rats. The animals were sacrificed after one hour and 24 hours and the hearts were perfused with isotonic saline in order to remove the blood from the brain. The brain was then counted in a gamma counter in order to determine the percentage of peptide uptake. In addition, in the 24 hour experiment the brain was homogenized and separated into a capillary rich fraction (pellet) and a parenchymal brain fraction (supernatant) after dextran centrifugation (Triguero et al., (1990) J. Neurochem., 54: 1882-1888). This method allows for the discrimination between radiolabelled peptide within blood vessels and that within the brain. In the 24 hour experiment, 0.017% of the injected peptide was detected in whole brain, 75% of the label was in the parenchymal fraction and 25% was in the capillary fraction. At 1 hour 0.03% of the injected dose was present in whole brain.

NS20Y proteins = assay: Incorporation of 32P into NS20Y proteins; assay type: cell-based; settings: NS20Y cells; effector proteins 0.5-1.0 μg/ml, 10-15 minutes; versus controls or saposins A, B or D
Procedure: NS20Y cells were incubated in phosphate-free Hanks' balanced salt solution containing 2.5 μg/ml actinomycin D and 80-100 μCi/ml carrier-free [^32P]-orthophosphate (New England Nuclear) and effector proteins (0.5-1.0 μg/ml) and incubated for 10-15 minutes at room temperature. Cells were solubilized in SDS-PAGE sample buffer, analyzed by SDS-PAGE and autoradiographed.

[3] = system: PC12M pheochromocytoma cells; assay: Neurite outgrowth from NGF-responsive PC12M cells; assay type: cell-based; settings: high concentrations (2 mg/ml)
Source text: Since nerve growth factor (NGF) acts on a variety of cell types, we wanted to determine whether it was involved in prosaposin-mediated outgrowth in neuroblastoma cells.

[4] = system: mouse cerebellar explants; assay: Neurite outgrowth and myelination in newborn mouse cerebellar explants; assay type: cell-based; settings: prosaposin 5 μg/ml, saposins 10 μg/ml; for cells with long projections at the periphery of the explant: day 15
Procedure: Newborn mouse cerebellar explants were prepared according to Satomi (Zool. Sci. 9, 127-137 (1992)). Neurite outgrowth and myelination were observed over 22 days in culture, during the period when the newborn mouse cerebellum normally undergoes neuronal differentiation and myelination begins. Prosaposin (5 μg/ml) and saposins A, B and C (10 μg/ml) were added on the second day after preparation of the explants (three control and three treated explants) and outgrowth of neurites and myelination were assessed under a bright field microscope with a video camera.

In the case of “41-82: carboxy terminal synthetic peptide, residues 41-82 of saposin C (KSLSEECQEVVDTYGSSILSILLEEVSPELVCSMLHLCSGTR; Saposin-C; UniProt P07602 351-392, looked up, fragment)”, the “neuritogenic activity (in words)” value [1] is reported as “inactive” and the “% Neurites after 24 hours” value [1] is reported as 17%.

For “21-48: synthetic peptide from the human saposin C domain, residues 21-48 (NNKTEKEILDAFDKMCSKLPKSLSEECQ; Saposin-C; UniProt P07602 331-358, looked up, fragment)”, the “% Neurites after 24 hours” value [1] was 18%.

For “NGF: nerve growth factor, a neurotrophin [reference compound]”, the “neuritogenic activity (in words)” value [1] was “no effect on neurite outgrowth” and the “augmentation of the prosaposin neurite outgrowth response” value ([1]; 5 μg/ml NGF (FIG. 1b)) was “did not augment the prosaposin response”.

With “iodinated 18-mer: amino acids 12-29 of saposin C with tyrosine substituted for valine at position 12 (SEQ ID NO: 5), radioiodinated (YKEVTKLIDNNKTEKEIL; also: radioiodinated)” the “crossing of the blood brain barrier (in words)” value [2] was “crosses the blood brain barrier”, the “injected peptide detected in whole brain” value [2] was 0.017% and the “label in the capillary fraction of brain” value [2] was 25%. For the same molecule, the “label in the parenchymal fraction of brain” value [2] was 75% and the “neuritogenic activity (in words)” value [1] was “neuritogenic activity”.

With CEFLVKEVTKLIDNNKTEKEIL [8-29] the “phosphorylation of proteins of 148, 100, 80, 68, 50, 38 and 34 kDa (in words)” value (NS20Y proteins) was “stimulate phosphorylation”, the “neuritogenic activity (in words)” value [1] was “neuritogenic activity” and the “extent of neurite outgrowth compared with prosaposin or saposin C” value ([1]; FIG. 1a, higher concentrations required for activity) was “greater than with prosaposin or saposin C”. The “% Neurites after 24 hours” value [1] was 56%.

With “13-34: synthetic peptide from the human saposin C domain, residues 13-34 (KEVTKLIDNNKTEKEILDAFDK; Saposin-C; UniProt P07602 323-344, looked up, fragment)” the “% Neurites after 24 hours” value [1] was 50%.

With “1-27: synthetic peptide from the human saposin C domain, residues 1-27 (SDVYCEVCEFLVKEVTKLIDNNKTEKE; Saposin-C; UniProt P07602 311-337, looked up, fragment)” the “% Neurites after 24 hours” value [1] was 46%.

For “1-40: amino terminal synthetic peptide, residues 1-40 of saposin C (SDVYCEVCEFLVKEVTKLIDNNKTEKEILDAFDKMCSKLP; Saposin-C; UniProt P07602 311-350, looked up, fragment)”, the “neuritogenic activity (in words)” value [1] was “active” and the “% Neurites after 24 hours” value [1] was 42%.

B1: Prosaposin: 70 kilodalton glycoprotein, precursor of saposins A, B, C and D; human sequence SEQ ID NO:2 (protein)
chain: MYALFLLASLLGAALAGPVLGLKECTRGSAVWCQNVKTASDCGAVKHCLQTVWNKPTVKSLPCDICKDVVTAAGDMLKDNATEEEILVYLEKTCDWLPKPNMSASCKEIVDSYLPVILDIIKGEMSRPGEVCSALNLCESLQKHLAELNHQKQLESNKIPELDMTEVVAPFMANIPLLLYPQDGPRSKPQPKDGDVCQDCIQMVTDIQTAVRTNSTFVQALVEHVKEECDRLGPGMADICKNYISQYSEIAIQMMMHMQPKEICALVGFCDEVKEMPMQTLVPAKVASKNVIPALDLVDPIKKHEVPAKSDVYCEVCEFLVKEVTKLIDNNKTEKEILDAFDKMCSKLPKSLSEECQEVVDTYGSSILSILLEEVSPELVCSMLHLCSGTRLPALTVHVTQPKDGGFCEVCKKLVGTLDRNLEKNSTKQEILAALEKGCSFLPDPYQKQCDQFVAEYEPVLIEILVEVMDPSFVCLKIGACPSAHKPLLGTEKCIWGPSYWCQNTETAAQCNAVEHCKRHVWN
With B1 the “stimulation of neurite outgrowth from PC12M cells” value [3] was “failed to stimulate neurite outgrowth”, the “phosphorylation of proteins of 148, 100, 80, 68, 50, 38 and 34 kDa (in words)” value (NS20Y proteins) was “stimulate phosphorylation” and the “neuritogenic activity (in words)” value [1] was “promoted reversible neurite outgrowth”. The “lowest concentration for activity (neurite outgrowth)” value ([1]; dose-response curve FIG. 1a) was 1.4×10^−11 M and 10 ng/ml, the “time at which retraction of neurite outgrowth was complete after removal” value ([1]; prosaposin removed) was 36 h and the “appearance of explant cultures on the eighth day” value ([4]; day 8) was “thinner and more spread out than control cultures”. For the same molecule, the “cells with long projections at the periphery of the explant” value (“cells with long projections” below) [4] was “many cells with long projections”.

B2: Saposin A: one of four saposins generated from prosaposin; inactive in neurite outgrowth (protein, UniProt P07602 60-142, looked up)
Saposin-A: SLPCDICKDVVTAAGDMLKDNATEEEILVYLEKTCDWLPKPNMSASCKEIVDSYLPVILDIIKGEMSRPGEVCSALNLCESLQ
modifications: Saposin-A
For B2, the “neuritogenic activity (in words)” value [1] was “inactive”, the “% Neurites after 24 hours” value [1] was 20% and the “cells with long projections” value [4] was “less prominent”.

B3: saposin B: one of four saposins generated from prosaposin (protein, UniProt P07602 195-273, looked up)
Saposin-B: GDVCQDCIQMVTDIQTAVRTNSTFVQALVEHVKEECDRLGPGMADICKNYISQYSEIAIQMMMHMQPKEICALVGFCDE
modifications: Saposin-B
notes: one of four saposins generated from prosaposin
With B3 the “cells with long projections” value [4] was “less prominent”.
